The target of this assay is SOD1-His ( (human or mouse cDNA cloned), UniProt P00441 1-154). Description: cell-based or functional assay.
SOD1-His, sequence (P00441 whole entry): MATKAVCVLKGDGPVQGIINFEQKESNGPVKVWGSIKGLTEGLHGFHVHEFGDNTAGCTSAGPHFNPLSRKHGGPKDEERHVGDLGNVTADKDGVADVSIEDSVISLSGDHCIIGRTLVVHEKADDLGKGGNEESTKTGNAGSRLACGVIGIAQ

B1: YWHAZ-His (natural protein, UniProt P63104 1-245, looked up)
chain: MDKNELVQKAKLAEQAERYDDMAACMKSVTEQGAELSNEERNLLSVAYKNVVGARRSSWRVVSSIEQKTEGAEKKQQMAREYREKIETELRDICNDVLSLLEKFLIPNASQAESKVFYLKMKGDYYRYLAEVAAGDDKKGIVDQSQQAYQEAFEISKKEMQPTHPIRLGLALNFSVFYYEILNSPEKACSLAKTAFDEAIAELDTLSEESYKDSTLIMQLLRDNLTLWTSDTQGDEAEAGEGGEN
As for B1, the “SOD1 activity of purified SOD1 after 15 h incubation with purified YWHAZ at ratios 1:1 and 1:3 (1 SOD1 to 3 YWHAZ protein amount); value at 1:3” value was about 2 fold.

The values above are taken from paper PMC9966940, “Evidence and Metabolic Implications for a New Non-Canonical Role of Cu-Zn Superoxide Dismutase” (International Journal of Molecular Sciences, 2023).
